{"source": "paper PMC8633019", "about": "(2021)", "binders": {"B1": {"name": "MRTF-A (protein)", "chain": "MPPLKSPAAFHEQRRSLERARTEDYLKRKIRSRPERSELVRMHILEETSAEPSLQAKQLKLKRARLADDLNEKIAQRPGPMELVEKNILPVESSLKEAIIVGQVNYPKVADSSSFDEDSSDALSPEQPASHESQGSVPSPLEARVSEPLLSATSASPTQVVSQLPMGRDSREMLFLAEQPPLPPPPLLPPSLTNGTTIPTAKSTPTLIKQSQPKSASEKSQRSKKAKELKPKVKKLKYHQYIPPDQKQDRGAPPMDSSYAKILQQQQLFLQLQILNQQQQQHHNYQAILPAPPKSAGEALGSSGTPPVRSLSTTNSSSSSGAPGPCGLARQNSTSLTGKPGALPANLDDMKVAELKQELKLRSLPVSGTKTELIERLRAYQDQISPVPGAPKAPAATSILHKAGEVVVAFPAARLSTGPALVAAGLAPAEVVVATVASSGVVKFGSTGSTPPVSPTPSERSLLSTGDENSTPGDTFGEMVTSPLTQLTLQASPLQILVKEEGPRAGSCCLSPGGRAELEGRDKDQMLQEKDKQIEALTRMLRQKQQLVERLKLQLEQEKRAQQPAPAPAPLGTPVKQENSFSSCQLSQQPLGPAHPFNPSLAAPATNHIDPCAVAPGPPSVVVKQEALQPEPEPVPAPQLLLGPQGPSLIKGVAPPTLITDSTGTHLVLTVTNKNADSPGLSSGSPQQPSSQPGSPAPAPSAQMDLEHPLQPLFGTPTSLLKKEPPGYEEAMSQQPKQQENGSSSQQMDDLFDILIQSGEISADFKEPPSLPGKEKPSPKTVCGSPLAAQPSPSAELPQAAPPPPGSPSLPGRLEDFLESSTGLPLLTSGHDGPEPLSLIDDLHSQMLSSTAILDHPPSPMDTSELHFVPEPSSTMGLDLADGHLDSMDWLELSSGGPVLSLAPLSTTAPSLFSTDFLDGHDLQLHWDSCL"}}, "target": "SM α-actin (Homo sapiens, UniProt P62736)", "assay": "TIRF microscopy polymerization assay"}
{"binder": "B1", "values": [{"measurement": "Kd", "result": 3.3, "unit": "µM"}]}
